Assay [1] has as its target combination of receptor ALK7 and receptor ActRIIB. Nature of the assay: cell-based or functional assay.
Assay [2] addresses combination of receptor ALK4 and receptor ActRIIB. Kind of assay: cell-based or functional assay.

For “Neuronal Survival and Growth Factor 3 (NSG3) (ligand)”, in assay [1], the luciferase activity of the Smad3-specific pCAGA-luc reporter in HepG2 cells co-expressing ALK7, ActRIIB and NsG-3 (basal without NsG-3 approx. 9) (arbitrary units) was 33. Besides, the luciferase activity of the Smad3-specific pCAGA-luc reporter in HepG2 cells co-expressing ALK4, ActRIIB and NsG-3 (basal without NsG-3 approx. 2) (arbitrary units) in assay [2] was found to be 7.

The values are drawn from patent US20040259779A1.
